# Reference: paper doi:10.1101/2024.09.05.611543 (bioRxiv, 2024)
# Biological target: the molecule itself
# Experiment: SEC-MALS
row,Protein,stoichiometry N
1,"CaKip3 PT (proximal tail only; residues 475-707), His6-MBP fusion (domain or fragment, Candida albicans, UniProt A0A1D8PKA4 475-707, looked up) KRKDLESKVFKILFESLESTRKAIAKQNQEKWKKYFILAKRKLLLSQKIETELVLEQRDDIDINSLSIASGNESESVFKIYDLCEQLISKIEYQLPQLESQYSQPTDLDYILEDSAMQTLKRLQDEEGWTEHHSAIYRQSIQSMKREVHTDLLLYSSILYDNLIHDLSIFFYIPREIGNFINNISNPTSLNEANQELLYNMTLGLENLLNGEFDSAMEHYAMDYMKNKVESEN",2
2,"CaKip3 MD-PT (motor domain, neck linker, neck extension and proximal tail domain; residues 1-707) (domain or fragment, Candida albicans, UniProt A0A1D8PKA4 1-707, looked up) MSYPNSLGSPATVTSTSVPTAKQSSISVAVRVRPFTEAESNRLVKIDNDDVFLGDGCLTSDNNNNNNNSNSNGNGNGNGSSAANSSGASTSRRAIFNTLGGLRKIINVVDDRMLIFDPPETNPLTKMQRNAFPNSFKGSRIREHRFVFDRLFDEDCTQDQVYRNTTQPLLDSVLDGYNATVFAYGATGCGKTHTISGTPEDPGVIFLTMKELYNRIEELKDTKIIDISLSYLEIYNETIRDLLNPMTQCKNLVIREDANNKISVSNLSRHRPNSVEEVMQLILEGNKNRTCSPTEANATSSRSHAVLQINVIQKDRTGDITEEHTFATLSIIDLAGSERAAATKNRGARLNEGANINKSLLALGNCINALCDPRRRNHVPYRDSKLTRLLKFSLGGNCKTVMIVCVSPSSQHYDETLNTLKYADRAKEIKTKLIRNQHNLDRHVGSYLKMITEQKQEIEELRARESKMVESTINKRKDLESKVFKILFESLESTRKAIAKQNQEKWKKYFILAKRKLLLSQKIETELVLEQRDDIDINSLSIASGNESESVFKIYDLCEQLISKIEYQLPQLESQYSQPTDLDYILEDSAMQTLKRLQDEEGWTEHHSAIYRQSIQSMKREVHTDLLLYSSILYDNLIHDLSIFFYIPREIGNFINNISNPTSLNEANQELLYNMTLGLENLLNGEFDSAMEHYAMDYMKNKVESEN",2
3,"CaKip3 NE-PT (neck extension and proximal tail; residues 444-707), His6-MBP fusion (domain or fragment, Candida albicans, UniProt A0A1D8PKA4 444-707, looked up) VGSYLKMITEQKQEIEELRARESKMVESTINKRKDLESKVFKILFESLESTRKAIAKQNQEKWKKYFILAKRKLLLSQKIETELVLEQRDDIDINSLSIASGNESESVFKIYDLCEQLISKIEYQLPQLESQYSQPTDLDYILEDSAMQTLKRLQDEEGWTEHHSAIYRQSIQSMKREVHTDLLLYSSILYDNLIHDLSIFFYIPREIGNFINNISNPTSLNEANQELLYNMTLGLENLLNGEFDSAMEHYAMDYMKNKVESEN",2
